Patent publication US20230235012A1 (ALPINE IMMUNE SCIENCES, published 2023)

T1: human ICOS (human, UniProt Q9Y6W8 21-199)
T1 construct: whole, on cells
T1 sequence (looked up): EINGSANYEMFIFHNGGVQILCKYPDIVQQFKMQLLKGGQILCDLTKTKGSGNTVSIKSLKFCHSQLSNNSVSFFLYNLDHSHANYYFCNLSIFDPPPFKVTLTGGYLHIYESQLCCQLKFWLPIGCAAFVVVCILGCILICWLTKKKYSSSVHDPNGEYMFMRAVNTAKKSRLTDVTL


Experiments:
human CTLA-4 [1] = biological target: T2, human CTLA-4 (human, UniProt P16410 36-223); test: flow cytometry, transfected cells; protein from 293
T2 construct: whole, on cells
T2 sequence (P16410 36-223): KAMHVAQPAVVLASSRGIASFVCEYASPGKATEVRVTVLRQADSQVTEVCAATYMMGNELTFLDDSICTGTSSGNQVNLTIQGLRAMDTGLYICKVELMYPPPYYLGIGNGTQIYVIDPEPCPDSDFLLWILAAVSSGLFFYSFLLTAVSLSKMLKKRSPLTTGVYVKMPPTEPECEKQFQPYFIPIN

human ICOS [2] = biological target: T1, human ICOS; test: as above
human CD28 [3] = biological target: T3, human CD28 (human, UniProt P10747 19-220); test: as above
T3 construct: whole, on cells

human CTLA-4 [4] = biological target: T2, human CTLA-4; test: flow cytometry, transfected cells; protein from CHO
human ICOS [5] = biological target: T1, human ICOS; test: as above
human CD28 [6] = biological target: T3, human CD28; test: as above
human CTLA-4 [7] = biological target: T2, human CTLA-4; test: as above; remark: listed apart in the source
human ICOS [8] = biological target: T1, human ICOS; test: as above; remark: listed apart in the source
human CD28 [9] = biological target: T3, human CD28; test: as above; remark: listed apart in the source

MFI (human CTLA-4 [1]) [MFI]	MFI (human ICOS [2]) [MFI]	MFI (human CD28 [3]) [MFI]	MFI (human CTLA-4 [4]) [MFI]	MFI (human ICOS [5]) [MFI]	MFI (human CD28 [6]) [MFI]	MFI ratio to WT (human CTLA-4 [1]) [fold]	MFI ratio to WT (human ICOS [2]) [fold]	MFI ratio to WT (human CD28 [3]) [fold]	MFI ratio to WT (human CTLA-4 [4]) [fold]	MFI ratio to WT (human ICOS [5]) [fold]	MFI ratio to WT (human CD28 [6]) [fold]	MFI (human CTLA-4 [7]) [MFI]	MFI ratio to WT (human CTLA-4 [7]) [fold]	MFI (human ICOS [8]) [MFI]	MFI ratio to WT (human ICOS [8]) [fold]	MFI (human CD28 [9]) [MFI]	MFI ratio to WT (human CD28 [9]) [fold]	Binder
8720	16700	13700	8750	7700	12900	–	–	–	–	–	–	–	–	–	–	–	–	ICOSL ECD with N52H/N57Y/Q100R/C198R linked to Fc C220S/L234A/L235E/G237A (Table 30D) (Fc fusion) DTQEKEVRAMVGSDVELSCACPEGSRFDLNDVYVYWQTSESKTVVTYHIPQHSSLEYVDSRYRNRALMSPAGMLRGDFSLRLFNVTPQDEQKFHCLVLSRSLGFQEVLSVEVTLHVAANFSVPVVSAPHSPSQDELTFTCTSINGYPRPNVYWINKTDNSLLDQALQNDTVFLNMRGLYDVVSVLRIARTPSVNIGCRIENVLLQQNLTVGSQTGNDIGERDKITENPVSTGEKNAATEPKSSDKTHTCPPCPAPEAEGAPSVFLFPPKPKDTLMISRTPEVTCVVVDVSHEDPEVKFNWYVDGVEVHNAKTKPREEQYNSTYRVVSVLTVLHQDWLNGKEYKCKVSNKALPAPIEKTISKAKGQPREPQVYTLPPSREEMTKNQVSLTCLVKGFYPSDIAVEWESNGQPENNYKTTPPVLDSDGSFFLYSKLTVDKSRWQQGNVFSCSVMHEALHNHYTQKSLSLSPGK
9670	7600	12000	9040	8080	13000	0.8	0.7	3.4	0.7	0.7	3.7	–	–	–	–	–	–	ICOSL ECD Truncation #7 with N52H/N57Y/Q100R/F172S, Fc fusion (Fc fusion) DTQEKEVRAMVGSDVELSCACPEGSRFDLNDVYVYWQTSESKTVVTYHIPQHSSLEYVDSRYRNRALMSPAGMLRGDFSLRLFNVTPQDEQKFHCLVLSRSLGFQEVLSVEVTLHVAANFSVPVVSAPHSPSQDELTFTCTSINGYPRPNVYWINKTDNSLLDQALQNDTVSLNMRGLYDVVSVLRIARTPSVNIGCCIENGGGGSGGGGSEPKSSDKTHTCPPCPAPEAEGAPSVFLFPPKPKDTLMISRTPEVTCVVVDVSHEDPEVKFNWYVDGVEVHNAKTKPREEQYNSTYRVVSVLTVLHQDWLNGKEYKCKVSNKALPAPIEKTISKAKGQPREPQVYTLPPSREEMTKNQVSLTCLVKGFYPSDIAVEWESNGQPENNYKTTPPVLDSDGSFFLYSKLTVDKSRWQQGNVFSCSVMHEALHNHYTQKSLSLSPG
8840	6890	14700	9000	7610	12700	0.7	0.6	4.1	0.7	0.7	3.6	377000	49.8	133000	1.3	68600	39.7	ICOSL ECD Truncation #4 with N52H/N57Y/Q100R/F172S, Fc fusion (Fc fusion) DTQEKEVRAMVGSDVELSCACPEGSRFDLNDVYVYWQTSESKTVVTYHIPQHSSLEYVDSRYRNRALMSPAGMLRGDFSLRLFNVTPQDEQKFHCLVLSRSLGFQEVLSVEVTLHVAANFSVPVVSAPHSPSQDELTFTCTSINGYPRPNVYWINKTDNSLLDQALQNDTVSLNMRGLYDVVSVLRIARTPSVNIGCCIENVLLQQNGGGGSGGGGSEPKSSDKTHTCPPCPAPEAEGAPSVFLFPPKPKDTLMISRTPEVTCVVVDVSHEDPEVKFNWYVDGVEVHNAKTKPREEQYNSTYRVVSVLTVLHQDWLNGKEYKCKVSNKALPAPIEKTISKAKGQPREPQVYTLPPSREEMTKNQVSLTCLVKGFYPSDIAVEWESNGQPENNYKTTPPVLDSDGSFFLYSKLTVDKSRWQQGNVFSCSVMHEALHNHYTQKSLSLSPG
